According to PMC2034485 (Nucleic Acids Research, 2007):

Experiments:
human Rad6 (hHR6B) = human Rad6 (hHR6B) (human, UniProt P63146 1-152); experiment: SEC
ubiquitin = ubiquitin (UniProt P0CG48 1-76); experiment: SPR

Sequence of human Rad6 (hHR6B) (P63146 whole entry): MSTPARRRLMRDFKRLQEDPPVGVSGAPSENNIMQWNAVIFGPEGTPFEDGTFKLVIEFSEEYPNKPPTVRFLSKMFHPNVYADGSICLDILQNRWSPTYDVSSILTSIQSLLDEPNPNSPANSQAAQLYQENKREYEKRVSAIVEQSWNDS

Row | binding result (human Rad6 (hHR6B)) | Kd (ubiquitin) [µM] | Binder
1 | binds | – | GST-fused Rad18 (1–99), Ring domain (domain or fragment) MDSLAESRWPPGLAVMKTIDDLLRCGICFEYFNIAMIIPQCSHNYCSLCIRKFLSYKTQCPTCCVTVTEPDLKNNRILDELVKSLNFARNHLLQFALES
2 | – | 42.1 | TLKQVTKVDCPVCGVNIPESHINKHLDSCLSREEKKES (domain or fragment) [GST-ZnF (Rad18 zinc finger domain)]
3 | – | 192 | TLKQVTKVDCPVFGVNIPESHINKHLDSCLSREEKKES (domain or fragment) [GST-C207F ZnF]
